Measurements reported in patent US20220411483A1 (Chugai, published 2022).
Numbering of substitutions follows the chain as printed. Each block holds one binder with its values, some of them ahead of it.

Legend:
[1] = target: T1, FcγRIIa R type extracellular domain with C-terminal His tag (human, UniProt P12318 34-217); experiment: SPR, antibody captured, FcgR analyte
T1 construct: extracellular domain; also called FcgRIIaR; not shown: His tag at the C terminus
T1 sequence (looked up): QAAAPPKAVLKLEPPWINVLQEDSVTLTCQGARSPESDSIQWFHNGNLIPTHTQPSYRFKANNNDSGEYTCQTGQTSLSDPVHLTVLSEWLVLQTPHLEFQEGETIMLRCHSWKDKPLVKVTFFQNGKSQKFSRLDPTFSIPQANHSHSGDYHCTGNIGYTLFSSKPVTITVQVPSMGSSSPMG

[2] = target: T2, FcγRIIb extracellular domain with C-terminal His tag (human, UniProt P31994 43-217); experiment: SPR, antibody captured, FcgR analyte
T2 construct: extracellular domain; also called FcgRIIb; not shown: His tag at the C terminus
T2 sequence (looked up): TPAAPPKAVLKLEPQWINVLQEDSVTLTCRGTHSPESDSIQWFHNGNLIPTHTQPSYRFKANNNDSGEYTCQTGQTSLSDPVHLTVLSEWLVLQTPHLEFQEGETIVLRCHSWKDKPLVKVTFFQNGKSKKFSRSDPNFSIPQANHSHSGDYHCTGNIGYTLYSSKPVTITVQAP

[3] = target: T3, FcγRIa extracellular domain with C-terminal His tag (human, UniProt P12314 16-292); experiment: SPR, antibody captured, FcgR analyte
T3 construct: also called FcgRIa; CD64; not shown: His tag at the C terminus
T3 sequence (P12314 16-292): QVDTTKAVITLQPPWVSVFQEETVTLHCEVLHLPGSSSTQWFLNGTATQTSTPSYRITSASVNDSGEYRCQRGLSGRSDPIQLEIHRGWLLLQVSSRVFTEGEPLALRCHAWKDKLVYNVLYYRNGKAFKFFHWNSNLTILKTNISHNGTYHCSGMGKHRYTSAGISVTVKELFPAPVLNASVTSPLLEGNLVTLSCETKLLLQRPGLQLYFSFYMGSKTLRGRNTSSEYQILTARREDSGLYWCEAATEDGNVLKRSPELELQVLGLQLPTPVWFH

human complement C1q = target: T4, human complement C1q (human, UniProt P02745 23-245; P02746 28-253; P02747 29-245); experiment: SPR, C1q bound per antibody captured on Protein L
T4 construct: Bought (PROSPEC or Calbiochem); also called human C1q
T4 sequence (P02745 23-245 limits assumed, chain 1 of 3): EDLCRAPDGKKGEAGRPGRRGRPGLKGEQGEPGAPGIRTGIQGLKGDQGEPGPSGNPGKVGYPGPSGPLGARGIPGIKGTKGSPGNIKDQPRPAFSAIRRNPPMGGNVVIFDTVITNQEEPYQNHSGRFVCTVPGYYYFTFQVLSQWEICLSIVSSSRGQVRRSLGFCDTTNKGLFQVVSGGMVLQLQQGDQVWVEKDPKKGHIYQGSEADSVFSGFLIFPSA
T4 sequence (P02746 28-253 limits assumed, chain 2 of 3): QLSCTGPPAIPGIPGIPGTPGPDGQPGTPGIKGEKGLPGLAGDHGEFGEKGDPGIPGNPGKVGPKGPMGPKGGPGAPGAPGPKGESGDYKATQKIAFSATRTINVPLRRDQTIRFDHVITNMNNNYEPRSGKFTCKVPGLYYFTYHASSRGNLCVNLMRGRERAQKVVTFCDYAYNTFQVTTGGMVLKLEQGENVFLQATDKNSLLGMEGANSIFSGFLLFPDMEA
T4 sequence (P02747 29-245 limits assumed, chain 3 of 3): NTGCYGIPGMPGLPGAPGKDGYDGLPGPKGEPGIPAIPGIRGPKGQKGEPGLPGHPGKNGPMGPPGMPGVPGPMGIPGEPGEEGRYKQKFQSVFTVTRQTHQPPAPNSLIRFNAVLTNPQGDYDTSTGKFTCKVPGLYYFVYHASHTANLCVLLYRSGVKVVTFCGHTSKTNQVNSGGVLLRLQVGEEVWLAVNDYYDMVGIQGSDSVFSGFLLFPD
Description: The interaction between an antibody and human C1q was analyzed using Biacore T200 (GE Healthcare). HBS-EP+ (GE Healthcare) was used as the running buffer, and the measurement temperature was set at 25° C. Chips produced by immobilizing Protein L (ACTIGEN or BioVision) onto Series S sensor Chip CM4 (GE Healthcare) by amine coupling were used.
The antibodies of interest were captured onto these sensor chips, and allowed to interact with human complement C1q (PROSPEC or Calbiochem) diluted in the running buffer. The amount of antibody binding was determined, and comparisons were made among the antibodies. However, since the amount of C1q bound depends on the amount of captured antibodies, corrected values obtained by dividing the amount of C1q bound by the amount of each antibody captured were compared. Furthermore, by reaction with 10 mM glycine-HCl, pH 1.5, the antibodies captured onto the sensor chips were washed, and the sensor chips were recycled and reused.

FcgRIIb = target: T5, FcgRIIb (human, UniProt P31994 43-217); experiment: SPR, amount bound per captured antibody
T5 construct: extracellular domain; also called FcγRIIb
T5 sequence (looked up): T2 sequence (looked up)

FcgRIIaR = target: T6, FcgRIIaR (human, UniProt P12318 34-217); experiment: SPR, amount bound per captured antibody
T6 construct: extracellular domain; also called FcγRIIa R type; FcγRIIa (R type)
T6 sequence (looked up): T1 sequence (looked up)

B1: IL6R-BP490/IL6R-L (antibody, human IgG1, kappa, name in EU numbering)
heavy: QVQLQESGPGLVKPSETLSLTCAVSGHSISHDHAWSWVRQPPGEGLEWIGFISYSGITNYNPSLQGRVTISRDNSKNTLYLQMNSLRAEDTAVYYCARSLARTTAMDYWGEGTLVTVSSASTKGPSVFPLAPSSKSTSGGTAALGCLVKDYFPEPVTVSWNSGALTSGVHTFPAVLQSSGLYSLSSVVTVPSSSLGTQTYICNVNHKPSNTKVDKKVEPKSCDKTHTCPPCPAPELLGDDSVFLFPPKPKDTLMISRTPEVTCVVIDVAEEDGEVKFNWYVDGVEVHNAKTKPREEQYNSTYRVVSVLTVLHQDWLNGKEYKCKVSNKALPRPIEKTISKAKGQPREPQVYTLPPSRDELTKNQVSLTCLVKGFYPSDIAVEWESNGQPENNYKTTPPVLDSDGSFFLYSKLTVDKSRWQQGNVFSCSVMHEALHNHYTQESLSLSP
light: not shown
notes: human IgG1
Kd [1]: 110 nM
Kd [2]: 2.4 nM
Kd [3]: 4.5 nM

B2: IL6R-BP534/IL6R-L (antibody, human IgG1, kappa, name in EU numbering)
heavy: B1 heavy with E235D, A269S, Y298D, P398L
light: not shown
notes: human IgG1
Kd [1]: 91 nM
Kd [2]: 3 nM
Kd [3]: 9.3 nM

B3: IL6R-P729/IL6R-L (antibody, human IgG1, kappa)
heavy: B1 heavy with L237F, D239Q, F243M, I266V, A269S, E270P, G273P, Y298E, R332A, E441K
light: not shown
Amount of C1q-binding when that for G1d is Defined as 100 (human complement C1q): 22.8 G1d=100
Relative FcgRIIb-binding Activity (FcgRIIb): 100 IL6R-G1d/IL6R-L=100
Relative FcgRIIaR-binding Activity (FcgRIIaR): 9 IL6R-G1d/IL6R-L=100

B4: IL6R-BP532/IL6R-L (antibody, human IgG1, kappa, name in EU numbering)
heavy: B1 heavy with E235D, A269S, Y298D, P398M
light: not shown
notes: human IgG1
Kd [1]: 94 nM
Kd [2]: 3.2 nM
Kd [3]: 12 nM

B6: IL6R-BP561/IL6R-L (antibody, human IgG1, kappa, name in EU numbering)
heavy: B1 heavy with E235D, I266V, A269S, E270D, E274D, Y298D
light: not shown
notes: human IgG1
Kd [1]: 510 nM
Kd [2]: 18 nM
Kd [3]: 9.4 nM

B7: IL6R-P691/IL6R-L (antibody, human IgG1, kappa)
heavy: B1 heavy with L237F, D239Q, F243M, I266V, A269S, E270H, G273P, Y298E, R332A, E441K
light: not shown
Amount of C1q-binding when that for G1d is Defined as 100 (human complement C1q): 21 G1d=100
Relative FcgRIIb-binding Activity (FcgRIIb): 119 IL6R-G1d/IL6R-L=100
Relative FcgRIIaR-binding Activity (FcgRIIaR): 10.8 IL6R-G1d/IL6R-L=100

B9: IL6R-BP552/IL6R-L (antibody, human IgG1, kappa, name in EU numbering)
heavy: B1 heavy with E235D, E274D, Y298D
light: not shown
notes: human IgG1
Kd [1]: 97 nM
Kd [2]: 2.6 nM
Kd [3]: 3.2 nM

B11: IL6R-BP506/IL6R-L (antibody, human IgG1, kappa, name in EU numbering)
heavy: B1 heavy with E235D, E274P, Y298D
light: not shown
notes: human IgG1
Kd [1]: 120 nM
Kd [2]: 3.4 nM
Kd [3]: 3.1 nM

B13: IL6R-BP555/IL6R-L (antibody, human IgG1, kappa, name in EU numbering)
heavy: B1 heavy with E274D, Y298D
light: not shown
notes: human IgG1
Kd [1]: 160 nM
Kd [2]: 4.1 nM
Kd [3]: 9.4 nM

More lines, now with the values ahead:

Amount of C1q-binding when that for G1d is Defined as 100 (human complement C1q): 23 G1d=100
Relative FcgRIIb-binding Activity (FcgRIIb): 84.8 IL6R-G1d/IL6R-L=100
Relative FcgRIIaR-binding Activity (FcgRIIaR): 8.1 IL6R-G1d/IL6R-L=100
B5: IL6R-P733/IL6R-L (antibody, human IgG1, kappa)
heavy: QVQLQESGPGLVKPSETLSLTCAVSGHSISHDHAWSWVRQPPGEGLEWIGFISYSGITNYNPSLQGRVTISRDNSKNTLYLQMNSLRAEDTAVYYCARSLARTTAMDYWGEGTLVTVSSASTKGPSVFPLAPSSKSTSGGTAALGCLVKDYFPEPVTVSWNSGALTSGVHTFPAVLQSSGLYSLSSVVTVPSSSLGTQTYICNVNHKPSNTKVDKKVEPKSCDKTHTCPPCPAPELFGQDSVMLFPPKPKDTLMISRTPEVTCVVVDVSPEDPEVKFNWYVDGVEVHNAKTKPREEQENSTYRVVSVLTVLHQDWLNGKEYKCKVHNKALPAPIEKTISKAKGQPREPQVYTLPPSRDELTKNQVSLTCLVKGFYPSDIAVEWESNGQPENNYKTTPPVLDSDGSFFLYSKLTVDKSRWQQGNVFSCSVMHEALHNHYTQKSLSLSP
light: not shown

Amount of C1q-binding when that for G1d is Defined as 100 (human complement C1q): 20.9 G1d=100
Relative FcgRIIb-binding Activity (FcgRIIb): 69.4 IL6R-G1d/IL6R-L=100
Relative FcgRIIaR-binding Activity (FcgRIIaR): 13.5 IL6R-G1d/IL6R-L=100
B8: IL6R-P743/IL6R-L (antibody, human IgG1, kappa)
heavy: B5 heavy with F237L, Q239G, M243F, P270H, E298Y, H326S, A329G, A332S, P333S
light: not shown

Kd [1]: 92 nM
Kd [2]: 4 nM
Kd [3]: 11 nM
B10: IL6R-BP535/IL6R-L (antibody, human IgG1, kappa, name in EU numbering)
heavy: B1 heavy with E235D, A269G, Y298D, A329G, P398M
light: not shown
notes: human IgG1

Relative FcgRIIb-binding Activity (FcgRIIb): 305 IL6R-G1d/IL6R-L=100
Relative FcgRIIaR-binding Activity (FcgRIIaR): 83.8 IL6R-G1d/IL6R-L=100
B12: IL6R-P555/IL6R-L (antibody, human IgG1, kappa)
heavy: B1 heavy with I266V, A269S, E270D, R332A, E441K
light: not shown
